The labels stand for the following.
B1: CPEB3 Ribozyme (parent)
chain: GGGGGCCACAGCAGAAGCGUUCACGUCGCGGCCCCUGUCAGAUUCUGGUGAAUCUGCGAAUUCUGCUGU

Variants of B1 are the subject of the data set. The experiment in a line: self-cleavage, relative activity (ratio to wild type); higher = more cleavage; co-transcriptional.
With G19A C32A, the self-cleavage stood at 0.174.
For G19U C57G, the self-cleavage is 0.218.
Turning to G19U C57U, the self-cleavage stood at 0.21.
With G19C U64C the figure was 0.123; with C18U U64G, 0.43.
Regarding G19C G30A, the self-cleavage was 0.159.
On to G19C G30C, for which the self-cleavage came to 0.129.
As to G19A A42U, the self-cleavage came out at 0.191.
With G19C G65U, the self-cleavage was 0.133.
As to G19C G65A, the self-cleavage amounted to 0.127.
As to G19C G65C, the self-cleavage stood at 0.12.
Consider G19C C34A, for which the self-cleavage worked out at 0.196.
In the case of G19C C34U, the self-cleavage is 0.209.
Turning to G19C C34G, the self-cleavage turned out to be 0.115.
With G19A C57G the figure was 0.137.
As for G19A C57A, the self-cleavage was 0.133.
As to G19A C57U, the self-cleavage was 0.178.
Turning to C18U G50A, the self-cleavage was found to be 0.906.
For G19A C35G, the self-cleavage came to 0.183.
As for G19A C24U, the figure is 0.16.
With G19A C24A the figure was 0.124; with G19A C24G, 0.159; with G19A G41C, 0.187.
For G19A G41A, the self-cleavage was 0.153.
As for G19A G41U, the self-cleavage is 0.142.
On to C18U G31C, for which the self-cleavage is 0.178.
For the variant C18U G31A, the self-cleavage amounted to 0.313.
As to C18U G31U, the self-cleavage came to 0.295.
In the case of G19C U55A, the self-cleavage turned out to be 0.132.
As for G19C U55C, the self-cleavage stood at 0.163.
For G19C U55G, the self-cleavage amounted to 0.172.
As for G19U C27G, the figure is 0.82; as for G19U C27A, 0.947.
As for G19C G25C, the figure is 0.141.
Take C18U C66A: the self-cleavage was 0.297.
On to C18U C66U, for which the self-cleavage came to 0.704.
C18U C39U: the self-cleavage is 0.551.
Take C18U C39A: the self-cleavage amounted to 0.387.
Turning to C18U U20C, the self-cleavage came out at 0.135.
As to C18U U20A, the self-cleavage worked out at 0.108.
Consider G19U A51U, for which the self-cleavage came to 0.476.
With G19U A51G, the self-cleavage is 0.538.
Turning to G19A U67C, the self-cleavage came to 0.177.
With G19A U67G the figure was 0.205; with C18U U26C, 0.732; with C18U U26G, 0.697.
In the case of G19A C66G, the self-cleavage worked out at 0.146.
In the case of G19A C66U, the self-cleavage worked out at 0.162.
Turning to G19A C66A, the self-cleavage is 0.145.
For the variant G19U G30A, the self-cleavage turned out to be 0.143.
Take G19U G30U: the self-cleavage was determined as 0.166.
As for G19U C22A, the figure is 0.14; as for G19U C22G, 0.164.
On to G19U C22U, for which the self-cleavage was 0.107.
Regarding G19U C66G, the self-cleavage came out at 0.27.
With G19U C66A the figure was 0.271; with G19A U64C, 0.159; with C18U G68C, 0.924.
As for C18U G68U, the figure is 0.943; as for C18U G68A, 0.948.
With C18U G30C the figure was 0.222; with C18U G30U, 0.192.
On to G19A G31C, for which the self-cleavage came to 0.143.
Regarding G19A G31U, the self-cleavage is 0.146.
As for G19C C22A, the figure is 0.0962.
On to G19C C22G, for which the self-cleavage came to 0.156.
In the case of G19A, the self-cleavage was found to be 0.167.
Take G19U: the self-cleavage was found to be 0.644.
For G19C, the self-cleavage is 0.154.
Take G19A G37U: the self-cleavage was determined as 0.127.
With G19A U26A, the self-cleavage came to 0.19.
As for G19A U62G, the figure is 0.169; as for G19A U62A, 0.204; as for G19U C45G, 0.4.
Take G19U C45U: the self-cleavage came to 0.469.
Turning to G19A C39U, the self-cleavage amounted to 0.158.
As for G19A C39A, the figure is 0.145.
Consider G19U C39G, for which the self-cleavage was 0.264.
Consider G19U C39U, for which the self-cleavage came out at 0.22.
With G19U C39A, the self-cleavage was 0.188.
Regarding G19A A60C, the self-cleavage stood at 0.0899.
For G19A A60U, the self-cleavage came out at 0.0747.
Regarding C18U U69G, the self-cleavage was 1.
C18U U69C: the self-cleavage is 1.04.
As for G19A U36G, the figure is 0.165.
For the variant G19A U36A, the self-cleavage was 0.0999.
With G19C A23U the figure was 0.119; with G19C A23C, 0.181.
Take C18U C63G: the self-cleavage was 0.306.
As for C18U C63U, the self-cleavage was 0.678.
As for C18U C63A, the figure is 0.284; as for G19U G41U, 0.157.
Consider G19U G41A, for which the self-cleavage was 0.181.
For G19U G41C, the self-cleavage turned out to be 0.16.
On to G19C U46A, for which the self-cleavage stood at 0.177.
As for G19C U46C, the figure is 0.159; as for G19U G37U, 0.199.
Consider G19U G37A, for which the self-cleavage turned out to be 0.19.
As for G19U G37C, the figure is 0.175.
In the case of G19U C33A, the self-cleavage is 0.101.
Take G19U C33G: the self-cleavage worked out at 0.203.
As for G19U C33U, the figure is 0.519.
Take G19C A59G: the self-cleavage came out at 0.175.
Consider C18U U46A, for which the self-cleavage came to 0.964.
For the variant C18U U46C, the self-cleavage worked out at 0.808.
Regarding C18U U46G, the self-cleavage was determined as 0.854.
With G19U A23U the figure was 0.494; with G19U A23C, 0.333.
Take G19A A59G: the self-cleavage is 0.188.
With G19A A59C, the self-cleavage was determined as 0.194.
Consider G19A U69A, for which the self-cleavage was 0.184.
Consider G19A G30U, for which the self-cleavage was found to be 0.147.
On to G19A G30C, for which the self-cleavage turned out to be 0.166.
As to G19A G30A, the self-cleavage was 0.144.
As for G19A U38C, the self-cleavage was determined as 0.16.
For G19A U38A, the self-cleavage is 0.165.
As to G19A G58C, the self-cleavage was 0.168.
Regarding G19A G58U, the self-cleavage was 0.194.
On to G19A C34A, for which the self-cleavage amounted to 0.201.
On to G19A C34U, for which the self-cleavage was determined as 0.181.
With G19U G31U, the self-cleavage amounted to 0.168.
As for G19U G31C, the figure is 0.163.
In the case of G19U G31A, the self-cleavage worked out at 0.258.
On to G19A U20G, for which the self-cleavage stood at 0.111.
With C18U C54G the figure was 0.456; with C18U C54A, 0.305; with C18U C54U, 0.852.
C18U G25C: the self-cleavage turned out to be 0.153.
As for C18U G25U, the figure is 0.17.
On to C18U G25A, for which the self-cleavage is 0.157.
Turning to G19C A40U, the self-cleavage is 0.0999.
In the case of G19C A40G, the self-cleavage stood at 0.194.
As for G19A G48U, the figure is 0.227; as for G19A G48A, 0.144.
Turning to G19C U43A, the self-cleavage is 0.127.
In the case of C18U C35G, the self-cleavage was 0.281.
For the variant G19U G47U, the self-cleavage is 0.64.
C18U U61C: the self-cleavage was 0.267.
Turning to C18U U61G, the self-cleavage is 0.312.
Regarding C18U U61A, the self-cleavage was determined as 0.467.
For G19U C35G, the self-cleavage came out at 0.199.
On to G19C G41A, for which the self-cleavage stood at 0.142.
As to G19C G41C, the self-cleavage turned out to be 0.17.
Consider G19A C63A, for which the self-cleavage came out at 0.0882.
Take G19A C63G: the self-cleavage worked out at 0.152.
As for G19A G47C, the self-cleavage stood at 0.25.
With C18U C57G the figure was 0.271; with C18U C57A, 0.24.
For G19A A52G, the self-cleavage stood at 0.204.
On to G19A A52C, for which the self-cleavage was determined as 0.183.
Take G19A A52U: the self-cleavage is 0.156.
G19C U20A: the self-cleavage turned out to be 0.109.
For the variant G19C U20G, the self-cleavage was 0.126.
Take G19C U20C: the self-cleavage was determined as 0.19.
Turning to C18U U43G, the self-cleavage came out at 0.357.
Consider C18U U43C, for which the self-cleavage is 0.768.
As for G19C U53G, the self-cleavage worked out at 0.158.
Consider G19C U53A, for which the self-cleavage was found to be 0.224.
As to G19U C63A, the self-cleavage was found to be 0.179.
In the case of C18U G47U, the self-cleavage came out at 0.928.
Turning to C18U G47C, the self-cleavage was 0.911.
Take C18U G47A: the self-cleavage came out at 0.975.
As for G19C G28U, the self-cleavage came to 0.142.
G19C G28C: the self-cleavage is 0.131.
With G19C G28A the figure was 0.147; with G19C U67G, 0.159; with G19C U67A, 0.0765.

Source of the values: the RNAGym collection of RNA variant scans (doi:10.7554/elife.80360).
